From patent US5494895A, “Scorpion peptide margatoxin with immunosuppressant activity” (Merck & Co., Inc., priority 1993, dated 1996)
Ends that are not written are not given here.

Columns and labels:
Kv 1.6 = biological target: T1, Kv 1.6 (Rattus norvegicus, UniProt P17659); conditions: rat clone; cited from earlier work
T1 construct: expressed in transfected cells; host or cells: Xenopus oocytes injected with RNA transcribed in vitro from the cDNA clone

[1] = biological target: T2, lymphocyte Kv 1.3 current (Homo sapiens, UniProt P22001); experiment: Whole cell patch clamp of human peripheral T-lymphocytes; assay type: cell-based; conditions: electrophysiology, Example 8
T2 construct: endogenous in cells; host or cells: purified human peripheral blood T lymphocytes
Procedure: Ionic currents were recorded from human peripheral T-lymphocytes using the whole cell patch clamp technique described in Cahalan, M. and Neher, E., Meth. Enzymol. 207, 3, 1992. Purified human T cells were obtained as described in Leonard et al., Proc. Natl. Acad. Sci. U.S.A., 89, 10094, 1992, and recordings were carried out in a bath solution consisting of ^125 mM NaCl, 2.5 mM KCl, 1.0 mM CaCl2, 2.0 mM MgCl2, 10 mM HEPES (potassium salt), 10 mM glucose, 5 mM Na-pyruvate, and 0.05% BSA. The pH was adjusted to 7.2, and experiments were performed at room temperature (19°-22° C.). The intracellular (pipette) solution contained 140 mM K-glutamate, 1 mM MgCl2, 10 mM HEPES (potassium salt), and 0.1 mM EGTA. The pH was adjusted to 7.2. Patch pipettes were fabricated from DAGAN (Minneapolis, Minn.) LG-16 glass and had resistances of 2 to 8M.OMEGA.. Currents were measured using a DAGAN model 3900 patch clamp. Delivery of command voltages, data acquisition, and post-acquisition analysis were aided by a microcomputer running the Pclamp program suite (AXON INSTRUMENTS, Foster City, Calif.).
Methods for oocyte isolation and micro-injection were previously described in Goldin, Meth. Cell Biol, 36, 487, 1991, and Swanson and Folander, Meth. Enzymol., 207, 310, 1992. Currents expressed in oocytes were measured using a DAGAN model CA-1 two-electrode voltage clamp. Delivery of command voltages, data acquisition and post-acquisition analysis were aided by a microcomputer running the Pclamp program suite. The oocyte bathing solution consisted of 96 mM NaCl, 2.5 mM KCl, 1 mM MgCl2, 1.8 mM CaCl2, 10 mM HEPES, and 0.05% BSA. The pH was 7.2. All recordings were obtained at room temperature (19°-22° C.). The intracellular microelectrodes were fabricated from DAGAN LE-16 glass in a two-stage pull to a final resistance of 0.6 to 2M.OMEGA. and filled with 3M KCl. For both lymphocyte and oocyte experiments, peptides were diluted into the extracellular solution from 20 μM aqueous stock containing 100 mM NaCl. The presence of 0.05% BSA in the bath solution inhibited non-specific loss of dilute peptide toxins in the perfusion tubing.
Both native and recombinant MgTX were tested for their ability to block voltage gated K^+ channels. […] There was insufficient native toxin to carry out selectivity studies, so those were conducted using the recombinant material exclusively. […] The apparent IC50 for inhibition of the lymphocyte Kv 1.3 current is between 20 to 100 pM. […] As reported previously, MgTX has no effect on three different ChTX-sensitive, Ca^2+ -activated K^+ channels of lymphocytes, even at 100 nM (Leonard et al., Proc. Natl. Acad. Sci. U.S.A. 89, 10094, 1992).

Maxi-K channel = biological target: T3, Maxi-K channel (Bos taurus, UniProt Q28204); experiment: [125I]ChTX binding to bovine aortic smooth muscle sarcolemmal membranes
T3 construct: from tissue; host or cells: bovine aortic smooth muscle sarcolemmal membranes
Procedure: (§1) The potency of MgTX as an inhibitor of [^125 I]ChTX binding to Kv 1.3 was evaluated. The binding of [^125 I]ChTX to either rat brain synaptic plasma membrane vesicles (Kv 1.3 channel; Vazquez et al., J. Biol. Chem. 265, 15564, 1990) or bovine aortic smooth muscle sarcolemmal membranes (Maxi-K channel; Vazquez et al., J. Biol. Chem. 264, 20402, 1989) was determined as described. Briefly, membrane vesicles were incubated with [^125 I]ChTX in the presence or absence of other added agents, until equilibrium was achieved. Separation of bound from free ligand was accomplished by filtration through GF/C glass fiber filters (WHATMAN) that had been presoaked in 0.5% polyethyleneimine. Nonspecific binding was determined in the presence of 10 nM unlabeled ChTX. Data from saturation experiments were analyzed in a Scatchard representation to determine Kd and Bmax values. Triplicate samples were obtained for each experimental point and the data were averaged. The standard deviation of the mean was typically less than 2%. […] As an indication of selectivity, MgTX had no effect on [^125 I]ChTX binding to the Maxi-K channel in smooth muscle membranes at concentrations up to 10 nM.

Kv 1.3 = biological target: T4, Kv 1.3 (Rattus norvegicus, UniProt P15384); experiment: [125I]ChTX binding to rat brain synaptic plasma membrane vesicles
T4 construct: from tissue; host or cells: rat brain synaptic plasma membrane vesicles
Procedure: as §1

T2 sequence (P22001 whole entry): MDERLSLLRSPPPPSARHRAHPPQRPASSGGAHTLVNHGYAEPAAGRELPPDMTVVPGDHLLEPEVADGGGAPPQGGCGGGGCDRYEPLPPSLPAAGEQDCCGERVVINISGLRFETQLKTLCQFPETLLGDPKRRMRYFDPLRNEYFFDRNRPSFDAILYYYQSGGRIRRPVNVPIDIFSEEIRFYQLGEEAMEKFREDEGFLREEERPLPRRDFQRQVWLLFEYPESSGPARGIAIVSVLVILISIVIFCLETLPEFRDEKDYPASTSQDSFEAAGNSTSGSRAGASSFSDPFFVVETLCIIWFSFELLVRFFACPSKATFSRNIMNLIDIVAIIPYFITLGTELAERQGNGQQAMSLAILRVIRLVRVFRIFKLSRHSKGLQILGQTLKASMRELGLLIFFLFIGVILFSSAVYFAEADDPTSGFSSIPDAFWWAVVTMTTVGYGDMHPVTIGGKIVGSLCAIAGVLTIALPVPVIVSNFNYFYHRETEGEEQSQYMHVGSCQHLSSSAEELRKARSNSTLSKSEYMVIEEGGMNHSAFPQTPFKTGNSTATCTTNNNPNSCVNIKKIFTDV
T4 sequence (P15384 whole entry): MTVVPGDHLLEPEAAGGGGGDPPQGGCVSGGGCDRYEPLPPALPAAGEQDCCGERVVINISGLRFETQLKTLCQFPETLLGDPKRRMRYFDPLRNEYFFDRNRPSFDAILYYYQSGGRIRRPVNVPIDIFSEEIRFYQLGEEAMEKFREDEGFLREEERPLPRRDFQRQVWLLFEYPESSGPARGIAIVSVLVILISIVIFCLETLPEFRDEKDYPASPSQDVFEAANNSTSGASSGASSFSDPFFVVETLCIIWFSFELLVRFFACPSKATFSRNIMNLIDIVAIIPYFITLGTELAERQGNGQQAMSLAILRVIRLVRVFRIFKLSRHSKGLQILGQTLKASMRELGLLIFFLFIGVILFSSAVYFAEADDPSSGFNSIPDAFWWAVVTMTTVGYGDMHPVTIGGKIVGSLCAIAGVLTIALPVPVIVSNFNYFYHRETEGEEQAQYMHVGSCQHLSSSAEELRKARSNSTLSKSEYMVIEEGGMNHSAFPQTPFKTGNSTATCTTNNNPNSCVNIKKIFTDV
T1 sequence (P17659 whole entry): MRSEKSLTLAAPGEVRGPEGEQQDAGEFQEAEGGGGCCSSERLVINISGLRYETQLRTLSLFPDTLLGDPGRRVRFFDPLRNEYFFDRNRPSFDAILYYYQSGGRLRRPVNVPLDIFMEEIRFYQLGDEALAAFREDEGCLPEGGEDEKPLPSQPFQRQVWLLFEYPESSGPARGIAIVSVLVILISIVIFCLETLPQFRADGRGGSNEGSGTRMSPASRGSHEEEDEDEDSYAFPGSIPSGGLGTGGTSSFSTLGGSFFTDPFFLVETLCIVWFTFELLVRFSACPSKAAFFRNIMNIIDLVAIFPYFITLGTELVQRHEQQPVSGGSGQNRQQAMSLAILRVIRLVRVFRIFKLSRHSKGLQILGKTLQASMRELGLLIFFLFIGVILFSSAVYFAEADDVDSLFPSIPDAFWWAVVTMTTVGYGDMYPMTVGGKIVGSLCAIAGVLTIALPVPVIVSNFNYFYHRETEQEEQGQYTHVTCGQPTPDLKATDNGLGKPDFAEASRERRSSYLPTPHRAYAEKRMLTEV
T3 sequence (Q28204 whole entry): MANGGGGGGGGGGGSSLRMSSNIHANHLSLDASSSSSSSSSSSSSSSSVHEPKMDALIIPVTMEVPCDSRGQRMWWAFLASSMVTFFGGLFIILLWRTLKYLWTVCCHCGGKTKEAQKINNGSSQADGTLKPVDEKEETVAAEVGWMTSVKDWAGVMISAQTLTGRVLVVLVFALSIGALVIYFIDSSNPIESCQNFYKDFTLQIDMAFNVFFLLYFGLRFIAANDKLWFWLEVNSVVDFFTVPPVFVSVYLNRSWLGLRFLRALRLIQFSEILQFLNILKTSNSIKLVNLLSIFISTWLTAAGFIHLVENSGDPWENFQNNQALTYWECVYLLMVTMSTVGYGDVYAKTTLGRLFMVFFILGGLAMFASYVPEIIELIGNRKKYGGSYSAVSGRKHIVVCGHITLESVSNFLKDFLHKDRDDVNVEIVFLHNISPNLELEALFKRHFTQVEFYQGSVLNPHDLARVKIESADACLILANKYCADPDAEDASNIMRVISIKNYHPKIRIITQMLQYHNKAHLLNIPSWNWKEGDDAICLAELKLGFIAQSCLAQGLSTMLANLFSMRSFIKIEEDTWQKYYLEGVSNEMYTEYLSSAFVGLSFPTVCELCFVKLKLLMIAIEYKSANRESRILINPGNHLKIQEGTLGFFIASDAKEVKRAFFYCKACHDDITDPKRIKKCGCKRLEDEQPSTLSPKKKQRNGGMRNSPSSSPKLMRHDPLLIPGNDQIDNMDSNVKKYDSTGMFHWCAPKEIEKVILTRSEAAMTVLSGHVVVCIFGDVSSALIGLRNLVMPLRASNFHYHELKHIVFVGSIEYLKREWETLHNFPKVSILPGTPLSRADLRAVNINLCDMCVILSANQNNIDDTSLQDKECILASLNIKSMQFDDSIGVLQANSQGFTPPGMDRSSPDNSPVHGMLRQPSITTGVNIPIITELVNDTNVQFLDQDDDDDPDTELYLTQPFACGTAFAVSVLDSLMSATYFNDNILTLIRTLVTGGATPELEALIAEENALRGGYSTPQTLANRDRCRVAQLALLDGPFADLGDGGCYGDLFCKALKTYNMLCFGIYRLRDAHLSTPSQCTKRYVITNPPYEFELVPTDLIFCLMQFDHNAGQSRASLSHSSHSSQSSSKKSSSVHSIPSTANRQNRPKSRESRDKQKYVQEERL
T3 sequence (Q28067 whole entry partner): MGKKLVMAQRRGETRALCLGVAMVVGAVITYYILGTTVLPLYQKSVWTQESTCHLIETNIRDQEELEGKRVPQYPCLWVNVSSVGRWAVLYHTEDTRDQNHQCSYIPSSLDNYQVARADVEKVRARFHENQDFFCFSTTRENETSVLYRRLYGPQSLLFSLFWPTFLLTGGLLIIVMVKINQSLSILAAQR

| Substance | IC50 (Kv 1.6) [nM] | potency and selectivity as an inhibitor of Kv 1.3 compared with native peptide [1] | potency and selectivity as an inhibitor of Kv 1.3 compared with native peptide ([1]; listed as recombinant MgTX) | effect on ChTX binding to the Maxi-K channel (Maxi-K channel) | potency for inhibition of [125I]ChTX binding to brain membranes compared with native MgTX (Kv 1.3) |
| --- | --- | --- | --- | --- | --- |
| charybdotoxin [ChTX] | > 1000 |  |  |  |  |
| rMgTX: recombinant MgTX expressed in E. coli as T7 gene 9 fusion protein, cleaved with factor Xa; identical to native peptide (TIINVKCTSPKQCLPPCKAQFGQSAGAKCMNGKCKCYPH; ends and bridges not checked; cysteine pairing not given here; UniProt P40755 1-39, looked up) |  | same potency and selectivity | identical results | did not affect | same potency as native MgTX |
